Experimental data: paper PMC9482650, “Quantitative fragmentomics allow affinity mapping of interactomes” (Nature Communications, 2022)

Legend:
Test in all cases: holdup assay
Design in all cases: key: below the threshold = too weak to quantify, mostly under pKd 3.1 to 4
AHNAK1, Q09666 = target: AHNAK1, Q09666
APBA1_2, Q02410 = target: T1, APBA1_2, Q02410
T1 sequence (Q02410 742-832, limits assumed, looked up): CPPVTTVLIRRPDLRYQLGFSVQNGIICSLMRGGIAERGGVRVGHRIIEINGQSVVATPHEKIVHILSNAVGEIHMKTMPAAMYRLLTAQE

CARD11, Q9BXL7 = target: T2, CARD11, Q9BXL7
T2 sequence (Q9BXL7 662-765, limits assumed, looked up): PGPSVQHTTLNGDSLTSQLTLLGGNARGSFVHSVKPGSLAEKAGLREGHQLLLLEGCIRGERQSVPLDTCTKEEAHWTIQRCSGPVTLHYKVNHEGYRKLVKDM

DFNB31_3, Q9P202 = target: T3, DFNB31_3, Q9P202
T3 sequence (Q9P202 811-907, limits assumed, looked up): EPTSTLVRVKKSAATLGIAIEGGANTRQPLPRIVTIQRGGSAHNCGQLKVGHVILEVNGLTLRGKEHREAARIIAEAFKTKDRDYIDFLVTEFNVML

DLG1_3, Q12959 = target: DLG1_3, Q12959
DLG4_3, P78352 = target: DLG4_3, P78352
FRMPD3, Q5JV73 = target: FRMPD3, Q5JV73
GORASP2, Q9H8Y8 = target: GORASP2, Q9H8Y8
GRID2IP_1, A4D2P6 = target: GRID2IP_1, A4D2P6
GRIP1_2, Q9Y3R0 = target: T4, GRIP1_2, Q9Y3R0
T4 sequence (Q9Y3R0 145-248, limits assumed, looked up): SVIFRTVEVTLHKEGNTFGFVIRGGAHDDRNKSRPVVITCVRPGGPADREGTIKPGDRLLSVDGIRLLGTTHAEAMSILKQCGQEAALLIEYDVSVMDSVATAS

GRIP1_3, Q9Y3R0 = target: T5, GRIP1_3, Q9Y3R0
T5 sequence (Q9Y3R0 247-346, limits assumed, looked up): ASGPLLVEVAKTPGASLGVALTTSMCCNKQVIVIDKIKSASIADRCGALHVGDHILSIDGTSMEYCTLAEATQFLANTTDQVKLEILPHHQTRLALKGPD

GRIP1_5, Q9Y3R0 = target: T6, GRIP1_5, Q9Y3R0
T6 sequence (Q9Y3R0 568-668, limits assumed, looked up): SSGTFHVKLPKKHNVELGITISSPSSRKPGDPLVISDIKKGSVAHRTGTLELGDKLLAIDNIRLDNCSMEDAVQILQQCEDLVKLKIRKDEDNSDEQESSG

GRIP2_3, Q9C0E4 = target: GRIP2_3, Q9C0E4
GRIP2_7, Q9C0E4 = target: GRIP2_7, Q9C0E4
HTRA2, O43464 = target: HTRA2, O43464
LAP2, Q96RT1 = target: LAP2, Q96RT1
LIN7C, Q9NUP9 = target: T7, LIN7C, Q9NUP9
T7 sequence (Q9NUP9 88-185, limits assumed, looked up): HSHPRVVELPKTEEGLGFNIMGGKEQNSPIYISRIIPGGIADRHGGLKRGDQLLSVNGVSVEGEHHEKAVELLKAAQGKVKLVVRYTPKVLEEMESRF

MAGI2_2, Q86UL8 = target: MAGI2_2, Q86UL8
MAGI2_4, Q86UL8 = target: MAGI2_4, Q86UL8
MPP7, Q5T2T1 = target: T8, MPP7, Q5T2T1
T8 sequence (Q5T2T1 134-230, limits assumed, looked up): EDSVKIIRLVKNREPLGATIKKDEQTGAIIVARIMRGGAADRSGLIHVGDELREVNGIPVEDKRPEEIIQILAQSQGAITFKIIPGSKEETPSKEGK

PDZRN4_1, Q6ZMN7 = target: PDZRN4_1, Q6ZMN7
SCRIB_1, Q14160 = target: SCRIB_1, Q14160
SCRIB_2, Q14160 = target: SCRIB_2, Q14160
SNX27, Q96L92 = target: SNX27, Q96L92
SYNJ2BP, P57105 = target: T9, SYNJ2BP, P57105
T9 sequence (P57105 8-110, limits assumed, looked up): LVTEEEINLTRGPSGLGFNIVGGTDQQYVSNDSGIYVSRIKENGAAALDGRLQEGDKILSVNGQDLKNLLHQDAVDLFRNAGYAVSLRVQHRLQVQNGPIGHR

TJP2_1, Q9UDY2 = target: TJP2_1, Q9UDY2
TJP3_3, O95049 = target: T10, TJP3_3, O95049
T10 sequence (O95049 375-456, limits assumed, looked up): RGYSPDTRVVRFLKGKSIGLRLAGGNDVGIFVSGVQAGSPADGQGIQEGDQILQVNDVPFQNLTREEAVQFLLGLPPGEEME

[1] = plain residues with an end cap or a label only (N-terminal biotin on a linker: ado-ado)
[2] = modified: phospho on T at position -2 from the C-terminal residue

GRIP2_3, Q9C0E4, sequence (Q9C0E4 238-339): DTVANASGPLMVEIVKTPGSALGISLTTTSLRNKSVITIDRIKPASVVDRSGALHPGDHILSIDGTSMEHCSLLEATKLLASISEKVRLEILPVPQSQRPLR
FRMPD3, Q5JV73, sequence (Q5JV73 12-100): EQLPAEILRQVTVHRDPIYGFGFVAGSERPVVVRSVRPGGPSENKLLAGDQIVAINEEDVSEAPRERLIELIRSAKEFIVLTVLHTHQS
DLG1_3, Q12959, sequence (Q12959 457-571): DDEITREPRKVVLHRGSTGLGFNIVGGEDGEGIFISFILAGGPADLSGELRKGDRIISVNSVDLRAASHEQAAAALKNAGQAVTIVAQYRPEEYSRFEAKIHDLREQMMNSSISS
AHNAK1, Q09666, sequence (Q09666 4-100): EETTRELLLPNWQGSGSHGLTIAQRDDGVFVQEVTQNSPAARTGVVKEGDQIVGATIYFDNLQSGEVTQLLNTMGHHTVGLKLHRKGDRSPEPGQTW
MAGI2_4, Q86UL8, sequence (Q86UL8 772-865): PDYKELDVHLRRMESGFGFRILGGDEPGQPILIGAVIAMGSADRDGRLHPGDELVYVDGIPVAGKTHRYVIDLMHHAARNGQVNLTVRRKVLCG
LAP2, Q96RT1, sequence (Q96RT1 other isoform, or with tags, fused parts or gaps): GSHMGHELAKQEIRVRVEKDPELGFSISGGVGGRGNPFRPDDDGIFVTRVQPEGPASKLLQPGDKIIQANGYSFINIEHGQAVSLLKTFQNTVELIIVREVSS
TJP2_1, Q9UDY2, sequence (Q9UDY2 24-128): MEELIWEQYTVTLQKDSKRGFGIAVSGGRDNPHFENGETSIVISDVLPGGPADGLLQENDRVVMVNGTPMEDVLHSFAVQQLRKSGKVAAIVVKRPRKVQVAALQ
GRIP2_7, Q9C0E4, sequence (Q9C0E4 934-1023): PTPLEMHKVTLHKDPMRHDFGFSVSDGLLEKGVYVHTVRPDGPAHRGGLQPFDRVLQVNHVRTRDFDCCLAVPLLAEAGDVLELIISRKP
PDZRN4_1, Q6ZMN7, sequence (Q6ZMN7 213-318): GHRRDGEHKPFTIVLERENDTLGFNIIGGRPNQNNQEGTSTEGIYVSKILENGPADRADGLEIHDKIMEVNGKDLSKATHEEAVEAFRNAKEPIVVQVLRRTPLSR
SCRIB_2, Q14160, sequence (Q14160 857-960): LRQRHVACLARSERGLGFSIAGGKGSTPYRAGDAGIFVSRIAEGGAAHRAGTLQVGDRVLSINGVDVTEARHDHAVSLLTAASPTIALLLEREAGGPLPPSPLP
HTRA2, O43464, sequence (O43464 355-458): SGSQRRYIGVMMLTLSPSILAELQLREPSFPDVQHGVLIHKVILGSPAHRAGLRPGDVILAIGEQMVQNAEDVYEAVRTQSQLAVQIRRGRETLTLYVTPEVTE
GRID2IP_1, A4D2P6, sequence (A4D2P6 1-87): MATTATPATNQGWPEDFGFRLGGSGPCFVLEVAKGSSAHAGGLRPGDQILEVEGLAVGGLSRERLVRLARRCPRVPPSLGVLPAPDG
MAGI2_2, Q86UL8, sequence (Q86UL8 410-522): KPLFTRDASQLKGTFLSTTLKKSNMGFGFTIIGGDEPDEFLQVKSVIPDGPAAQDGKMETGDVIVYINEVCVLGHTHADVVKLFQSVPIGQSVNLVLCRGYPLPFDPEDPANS
DLG4_3, P78352, sequence (P78352 306-403): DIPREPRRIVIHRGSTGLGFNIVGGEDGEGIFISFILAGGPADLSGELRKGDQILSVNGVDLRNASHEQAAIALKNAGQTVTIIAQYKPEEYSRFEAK
SCRIB_1, Q14160, sequence (Q14160 718-814): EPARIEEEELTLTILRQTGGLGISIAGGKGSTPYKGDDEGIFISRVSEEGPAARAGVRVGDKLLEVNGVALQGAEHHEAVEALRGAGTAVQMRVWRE

LRSPRTPSEV [OR10G3, Q8NGC4]
pKd (AHNAK1, Q09666; [1]): below the threshold
pKd (APBA1_2, Q02410; [1]): 4.1
pKd (CARD11, Q9BXL7; [1]): below the threshold
pKd (DFNB31_3, Q9P202; [1]): 3.79
pKd (DLG1_3, Q12959; [1]): below the threshold
pKd (DLG4_3, P78352; [1]): below the threshold
pKd (FRMPD3, Q5JV73; [1]): below the threshold
pKd (GORASP2, Q9H8Y8; [1]): below the threshold
pKd (GRID2IP_1, A4D2P6; [1]): below the threshold
pKd (GRIP1_2, Q9Y3R0; [1]): below the threshold
pKd (GRIP1_3, Q9Y3R0; [1]): below the threshold
pKd (GRIP1_5, Q9Y3R0; [1]): below the threshold
pKd (GRIP2_3, Q9C0E4; [1]): below the threshold
pKd (GRIP2_7, Q9C0E4; [1]): below the threshold
pKd (HTRA2, O43464; [1]): below the threshold
pKd (LAP2, Q96RT1; [1]): 3.9
pKd (LIN7C, Q9NUP9; [1]): 3.88
pKd (MAGI2_2, Q86UL8; [1]): 4.27
pKd (MAGI2_4, Q86UL8; [1]): below the threshold
pKd (MPP7, Q5T2T1; [1]): below the threshold
pKd (PDZRN4_1, Q6ZMN7; [1]): below the threshold
pKd (SCRIB_1, Q14160; [1]): below the threshold
pKd (SCRIB_2, Q14160; [1]): 3.6
pKd (SNX27, Q96L92; [1]): below the threshold
pKd (SYNJ2BP, P57105; [1]): 4.61
pKd (TJP2_1, Q9UDY2; [1]): below the threshold
pKd (TJP3_3, O95049; [1]): below the threshold

RRLPGKETMA [GRIK2, Q13002]
pKd (AHNAK1, Q09666; [1]): below the threshold
pKd (APBA1_2, Q02410; [1]): below the threshold
pKd (CARD11, Q9BXL7; [1]): below the threshold
pKd (DFNB31_3, Q9P202; [1]): below the threshold
pKd (DLG1_3, Q12959; [1]): 3.69
pKd (DLG4_3, P78352; [1]): below the threshold
pKd (FRMPD3, Q5JV73; [1]): below the threshold
pKd (GORASP2, Q9H8Y8; [1]): 3.55
pKd (GRID2IP_1, A4D2P6; [1]): below the threshold
pKd (GRIP1_2, Q9Y3R0; [1]): below the threshold
pKd (GRIP1_3, Q9Y3R0; [1]): below the threshold
pKd (GRIP1_5, Q9Y3R0; [1]): below the threshold
pKd (GRIP2_3, Q9C0E4; [1]): below the threshold
pKd (GRIP2_7, Q9C0E4; [1]): below the threshold
pKd (HTRA2, O43464; [1]): below the threshold
pKd (LAP2, Q96RT1; [1]): below the threshold
pKd (LIN7C, Q9NUP9; [1]): below the threshold
pKd (MAGI2_2, Q86UL8; [1]): below the threshold
pKd (MAGI2_4, Q86UL8; [1]): below the threshold
pKd (MPP7, Q5T2T1; [1]): below the threshold
pKd (PDZRN4_1, Q6ZMN7; [1]): below the threshold
pKd (SCRIB_1, Q14160; [1]): below the threshold
pKd (SCRIB_2, Q14160; [1]): below the threshold
pKd (SNX27, Q96L92; [1]): below the threshold
pKd (SYNJ2BP, P57105; [1]): below the threshold
pKd (TJP2_1, Q9UDY2; [1]): below the threshold
pKd (TJP3_3, O95049; [1]): below the threshold

SKPTRRETEV [HPV35-E6_-2P, P27228]
pKd (AHNAK1, Q09666; [2]): below the threshold
pKd (APBA1_2, Q02410; [2]): below the threshold
pKd (CARD11, Q9BXL7; [2]): below the threshold
pKd (DFNB31_3, Q9P202; [2]): 3.95
pKd (DLG1_3, Q12959; [2]): below the threshold
pKd (DLG4_3, P78352; [2]): below the threshold
pKd (FRMPD3, Q5JV73; [2]): below the threshold
pKd (GORASP2, Q9H8Y8; [2]): below the threshold
pKd (GRID2IP_1, A4D2P6; [2]): below the threshold
pKd (GRIP1_2, Q9Y3R0; [2]): below the threshold
pKd (GRIP1_3, Q9Y3R0; [2]): below the threshold
pKd (GRIP1_5, Q9Y3R0; [2]): below the threshold
pKd (GRIP2_3, Q9C0E4; [2]): below the threshold
pKd (GRIP2_7, Q9C0E4; [2]): below the threshold
pKd (HTRA2, O43464; [2]): below the threshold
pKd (LAP2, Q96RT1; [2]): below the threshold
pKd (LIN7C, Q9NUP9; [2]): 4.05
pKd (MAGI2_2, Q86UL8; [2]): below the threshold
pKd (MAGI2_4, Q86UL8; [2]): below the threshold
pKd (MPP7, Q5T2T1; [2]): below the threshold
pKd (PDZRN4_1, Q6ZMN7; [2]): below the threshold
pKd (SCRIB_1, Q14160; [2]): below the threshold
pKd (SCRIB_2, Q14160; [2]): below the threshold
pKd (SNX27, Q96L92; [2]): 3.59
pKd (SYNJ2BP, P57105; [2]): below the threshold
pKd (TJP2_1, Q9UDY2; [2]): below the threshold
pKd (TJP3_3, O95049; [2]): below the threshold

RRRESYSTTV [EVI5, O60447]
pKd (AHNAK1, Q09666; [1]): below the threshold
pKd (APBA1_2, Q02410; [1]): 3.74
pKd (CARD11, Q9BXL7; [1]): below the threshold
pKd (DFNB31_3, Q9P202; [1]): below the threshold
pKd (DLG1_3, Q12959; [1]): 4.16
pKd (DLG4_3, P78352; [1]): 4.44
pKd (FRMPD3, Q5JV73; [1]): below the threshold
pKd (GORASP2, Q9H8Y8; [1]): 5.13
pKd (GRID2IP_1, A4D2P6; [1]): below the threshold
pKd (GRIP1_2, Q9Y3R0; [1]): below the threshold
pKd (GRIP1_3, Q9Y3R0; [1]): below the threshold
pKd (GRIP1_5, Q9Y3R0; [1]): below the threshold
pKd (GRIP2_3, Q9C0E4; [1]): below the threshold
pKd (GRIP2_7, Q9C0E4; [1]): below the threshold
pKd (HTRA2, O43464; [1]): below the threshold
pKd (LAP2, Q96RT1; [1]): 3.88
pKd (LIN7C, Q9NUP9; [1]): 4.31
pKd (MAGI2_2, Q86UL8; [1]): 5.15
pKd (MAGI2_4, Q86UL8; [1]): 4.63
pKd (MPP7, Q5T2T1; [1]): below the threshold
pKd (PDZRN4_1, Q6ZMN7; [1]): 4.23
pKd (SCRIB_1, Q14160; [1]): 4.57
pKd (SCRIB_2, Q14160; [1]): below the threshold
pKd (SNX27, Q96L92; [1]): 4.79
pKd (SYNJ2BP, P57105; [1]): 4.89
pKd (TJP2_1, Q9UDY2; [1]): 4.84
pKd (TJP3_3, O95049; [1]): below the threshold
